Test results reported in patent US20150344570A1 (published 2015).

T1: FcγRIIb (human, UniProt P31994 43-217)
T1 construct: extracellular domain; also called FcgRIIb; 2b
T1 sequence (looked up): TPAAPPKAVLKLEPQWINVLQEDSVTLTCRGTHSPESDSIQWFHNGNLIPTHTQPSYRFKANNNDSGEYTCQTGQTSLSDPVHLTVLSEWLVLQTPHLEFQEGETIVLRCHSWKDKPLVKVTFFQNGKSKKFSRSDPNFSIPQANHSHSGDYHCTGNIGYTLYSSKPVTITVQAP

T2: FcγRIIa H (human, UniProt P12318 34-217)
T2 construct: extracellular domain; also called FcγRIIa type H; 2aH
T2 sequence (looked up): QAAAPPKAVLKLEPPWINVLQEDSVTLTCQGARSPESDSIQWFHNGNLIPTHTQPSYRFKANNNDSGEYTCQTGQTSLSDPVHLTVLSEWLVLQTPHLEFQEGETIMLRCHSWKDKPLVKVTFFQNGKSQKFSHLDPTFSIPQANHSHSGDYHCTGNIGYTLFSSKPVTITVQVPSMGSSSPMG

T3: FcγRIIb (human, UniProt P31994 43-217)
T3 construct: extracellular domain; also called 2b; FcgRIIb
T3 sequence (looked up): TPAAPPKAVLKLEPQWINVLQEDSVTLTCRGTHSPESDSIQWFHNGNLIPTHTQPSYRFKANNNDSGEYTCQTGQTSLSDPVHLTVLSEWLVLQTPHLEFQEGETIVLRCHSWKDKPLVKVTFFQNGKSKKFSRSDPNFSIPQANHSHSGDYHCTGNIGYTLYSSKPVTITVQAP


Tests used:
[1] = target: T1, FcγRIIb; test: SPR (Biacore), captured antibody, FcγR as analyte; relative binding, control GpH7-A5/GpH7-B3/GpL16-k0 = 100
Method: (§1) The heterodimerized antibodies He Abs in which one of the H chains was introduced with an alteration were assayed for their binding activities to each activating FcγR and inhibitory FcγR according to the method described in Example 4. […] The activating FcγRs in FIGS. 26, 27, 28, and 29 are FcγRIa, FcγRIIa (R), FcγRIIa (H), and FcγRIIIa, respectively.
(§2) Analysis of interaction between objective antibody and the FcγR was carried out using Biacore T100 (GE Healthcare). HBS-EP+ (GE Healthcare) was used as the running buffer, and the measurement temperature was set to 25° C. Chips produced by immobilizing the antigen peptide by the amine coupling method to a Series S Sencor Chip CM5 (GE Healthcare), or alternatively, chips produced by allowing preliminarily biotinylated antigen peptides to interact with and immobilize onto a Series S Sensor Chip SA (certified) (GE Healthcare) were used. Antibodies of interest were captured onto an antigen peptide-immobilized chip, and allowed to interact to each FcγR diluted with running buffer. To regenerate and repeatedly use the chip, the antibodies captured on the chip were washed off by reacting 10 mM glycine-HCl, pH 1.5.

[2] = target: T2, FcγRIIa H; test: ratio of He/Con_2aH to He/Con_2b (FcγRIIb); SPR
[3] = target: T2, FcγRIIa H; test: SPR (Biacore), captured antibody, FcγR as analyte; GpH7-A5/GpH7-B3/GpL16-k0 = 100
Method: as §1, §2

[4] = target: T3, FcγRIIb; test: as above
Method: as §1, §2

Binder	He/Con_2b [1] [control = 100]	He_2aH/2b (IIaH/IIb ratio) [2]	He/Con_2aH (relative binding) [3] [%]	He/Con_2b (relative binding) [4] [%]
GpH7-A5/GpH7-B3 variant D265_15Y/GpL16-k0 (antibody, human IgG1, kappa, heterodimerized anti-glypican-3 IgG1; alteration in one H chain only; also called He Ab) heavy 1: not shown heavy 2: not shown light: DIVMTQSPLSLPVTPGEPASISCQASESLVHSNRNTYLHWYLQKPGQSPQLLIYKVSNRFSGVPDRFSGSGSGTDFTLKISRVEAEDVGVYYCSQNTHVPPTFGQGTKVEIERTVAAPSVFIFPPSDEQLKSGTASVVCLLNNFYPREAKVQWKVDNALQSGNSQESVTEQDSKDSTYSLSSTLTLSKADYEKHKVYACEVTHQGLSSPVTKSFNRGEC	0.6			
GpH7-A5/GpH7-B3 variant D270_01G/GpL16-k0 (antibody, human IgG1, kappa, Heterodimerized anti-glypican-3 IgG1 (He Ab); mutation in the B3 H chain only; also called He Ab) heavy 1: not shown heavy 2: not shown light: DIVMTQSPLSLPVTPGEPASISCQASESLVHSNRNTYLHWYLQKPGQSPQLLIYKVSNRFSGVPDRFSGSGSGTDFTLKISRVEAEDVGVYYCSQNTHVPPTFGQGTKVEIERTVAAPSVFIFPPSDEQLKSGTASVVCLLNNFYPREAKVQWKVDNALQSGNSQESVTEQDSKDSTYSLSSTLTLSKADYEKHKVYACEVTHQGLSSPVTKSFNRGEC		1.72	52.5	30.5
GpH7-A5/GpH7-B3 variant D270_04F/GpL16-k0 (antibody, human IgG1, kappa, Heterodimerized anti-glypican-3 IgG1 (He Ab); mutation in the B3 H chain only; also called He Ab) heavy 1: not shown heavy 2: not shown light: DIVMTQSPLSLPVTPGEPASISCQASESLVHSNRNTYLHWYLQKPGQSPQLLIYKVSNRFSGVPDRFSGSGSGTDFTLKISRVEAEDVGVYYCSQNTHVPPTFGQGTKVEIERTVAAPSVFIFPPSDEQLKSGTASVVCLLNNFYPREAKVQWKVDNALQSGNSQESVTEQDSKDSTYSLSSTLTLSKADYEKHKVYACEVTHQGLSSPVTKSFNRGEC		1.42	75.4	53.1
GpH7-A5/GpH7-B3 variant D270_02A/GpL16-k0 (antibody, human IgG1, kappa, Heterodimerized anti-glypican-3 IgG1 (He Ab); mutation in the B3 H chain only; also called He Ab) heavy 1: not shown heavy 2: not shown light: DIVMTQSPLSLPVTPGEPASISCQASESLVHSNRNTYLHWYLQKPGQSPQLLIYKVSNRFSGVPDRFSGSGSGTDFTLKISRVEAEDVGVYYCSQNTHVPPTFGQGTKVEIERTVAAPSVFIFPPSDEQLKSGTASVVCLLNNFYPREAKVQWKVDNALQSGNSQESVTEQDSKDSTYSLSSTLTLSKADYEKHKVYACEVTHQGLSSPVTKSFNRGEC		1.58	76.4	48.3
GpH7-A5/GpH7-B3 variant D270_08L/GpL16-k0 (antibody, human IgG1, kappa, Heterodimerized anti-glypican-3 IgG1 (He Ab); mutation in the B3 H chain only; also called He Ab) heavy 1: not shown heavy 2: not shown light: DIVMTQSPLSLPVTPGEPASISCQASESLVHSNRNTYLHWYLQKPGQSPQLLIYKVSNRFSGVPDRFSGSGSGTDFTLKISRVEAEDVGVYYCSQNTHVPPTFGQGTKVEIERTVAAPSVFIFPPSDEQLKSGTASVVCLLNNFYPREAKVQWKVDNALQSGNSQESVTEQDSKDSTYSLSSTLTLSKADYEKHKVYACEVTHQGLSSPVTKSFNRGEC		1.41	75.8	53.6
GpH7-A5/GpH7-B3 variant D270_03V/GpL16-k0 (antibody, human IgG1, kappa, Heterodimerized anti-glypican-3 IgG1 (He Ab); mutation in the B3 H chain only; also called He Ab) heavy 1: not shown heavy 2: not shown light: DIVMTQSPLSLPVTPGEPASISCQASESLVHSNRNTYLHWYLQKPGQSPQLLIYKVSNRFSGVPDRFSGSGSGTDFTLKISRVEAEDVGVYYCSQNTHVPPTFGQGTKVEIERTVAAPSVFIFPPSDEQLKSGTASVVCLLNNFYPREAKVQWKVDNALQSGNSQESVTEQDSKDSTYSLSSTLTLSKADYEKHKVYACEVTHQGLSSPVTKSFNRGEC		1.56	61.8	39.5
GpH7-A5/GpH7-B3 variant V266_12R/GpL16-k0 (antibody, human IgG1, kappa, heterodimerized anti-glypican-3 IgG1; alteration in one H chain only; also called He Ab) heavy 1: not shown heavy 2: not shown light: DIVMTQSPLSLPVTPGEPASISCQASESLVHSNRNTYLHWYLQKPGQSPQLLIYKVSNRFSGVPDRFSGSGSGTDFTLKISRVEAEDVGVYYCSQNTHVPPTFGQGTKVEIERTVAAPSVFIFPPSDEQLKSGTASVVCLLNNFYPREAKVQWKVDNALQSGNSQESVTEQDSKDSTYSLSSTLTLSKADYEKHKVYACEVTHQGLSSPVTKSFNRGEC	-1.1			
GpH7-A5/GpH7-B3 variant D270_12R/GpL16-k0 (antibody, human IgG1, kappa, Heterodimerized anti-glypican-3 IgG1 (He Ab); mutation in the B3 H chain only; also called He Ab) heavy 1: not shown heavy 2: not shown light: DIVMTQSPLSLPVTPGEPASISCQASESLVHSNRNTYLHWYLQKPGQSPQLLIYKVSNRFSGVPDRFSGSGSGTDFTLKISRVEAEDVGVYYCSQNTHVPPTFGQGTKVEIERTVAAPSVFIFPPSDEQLKSGTASVVCLLNNFYPREAKVQWKVDNALQSGNSQESVTEQDSKDSTYSLSSTLTLSKADYEKHKVYACEVTHQGLSSPVTKSFNRGEC		2.16	39.5	18.3
GpH7-A5/GpH7-B3 variant D270_10E/GpL16-k0 (antibody, human IgG1, kappa, Heterodimerized anti-glypican-3 IgG1 (He Ab); mutation in the B3 H chain only; also called He Ab) heavy 1: not shown heavy 2: not shown light: DIVMTQSPLSLPVTPGEPASISCQASESLVHSNRNTYLHWYLQKPGQSPQLLIYKVSNRFSGVPDRFSGSGSGTDFTLKISRVEAEDVGVYYCSQNTHVPPTFGQGTKVEIERTVAAPSVFIFPPSDEQLKSGTASVVCLLNNFYPREAKVQWKVDNALQSGNSQESVTEQDSKDSTYSLSSTLTLSKADYEKHKVYACEVTHQGLSSPVTKSFNRGEC		1.34	102	76.5
GpH7-A5/GpH7-B3 variant D265_20W/GpL16-k0 (antibody, human IgG1, kappa, heterodimerized anti-glypican-3 IgG1; alteration in one H chain only; also called He Ab) heavy 1: not shown heavy 2: not shown light: DIVMTQSPLSLPVTPGEPASISCQASESLVHSNRNTYLHWYLQKPGQSPQLLIYKVSNRFSGVPDRFSGSGSGTDFTLKISRVEAEDVGVYYCSQNTHVPPTFGQGTKVEIERTVAAPSVFIFPPSDEQLKSGTASVVCLLNNFYPREAKVQWKVDNALQSGNSQESVTEQDSKDSTYSLSSTLTLSKADYEKHKVYACEVTHQGLSSPVTKSFNRGEC	1.1			
GpH7-A5/GpH7-B3 variant D270_06M/GpL16-k0 (antibody, human IgG1, kappa, Heterodimerized anti-glypican-3 IgG1 (He Ab); mutation in the B3 H chain only; also called He Ab) heavy 1: not shown heavy 2: not shown light: DIVMTQSPLSLPVTPGEPASISCQASESLVHSNRNTYLHWYLQKPGQSPQLLIYKVSNRFSGVPDRFSGSGSGTDFTLKISRVEAEDVGVYYCSQNTHVPPTFGQGTKVEIERTVAAPSVFIFPPSDEQLKSGTASVVCLLNNFYPREAKVQWKVDNALQSGNSQESVTEQDSKDSTYSLSSTLTLSKADYEKHKVYACEVTHQGLSSPVTKSFNRGEC		1.54	74.4	48.2
GpH7-A5/GpH7-B3 variant D270_11K/GpL16-k0 (antibody, human IgG1, kappa, Heterodimerized anti-glypican-3 IgG1 (He Ab); mutation in the B3 H chain only; also called He Ab) heavy 1: not shown heavy 2: not shown light: DIVMTQSPLSLPVTPGEPASISCQASESLVHSNRNTYLHWYLQKPGQSPQLLIYKVSNRFSGVPDRFSGSGSGTDFTLKISRVEAEDVGVYYCSQNTHVPPTFGQGTKVEIERTVAAPSVFIFPPSDEQLKSGTASVVCLLNNFYPREAKVQWKVDNALQSGNSQESVTEQDSKDSTYSLSSTLTLSKADYEKHKVYACEVTHQGLSSPVTKSFNRGEC		2.17	44	20.3
GpH7-A5/GpH7-B3 variant D270_07I/GpL16-k0 (antibody, human IgG1, kappa, Heterodimerized anti-glypican-3 IgG1 (He Ab); mutation in the B3 H chain only; also called He Ab) heavy 1: not shown heavy 2: not shown light: DIVMTQSPLSLPVTPGEPASISCQASESLVHSNRNTYLHWYLQKPGQSPQLLIYKVSNRFSGVPDRFSGSGSGTDFTLKISRVEAEDVGVYYCSQNTHVPPTFGQGTKVEIERTVAAPSVFIFPPSDEQLKSGTASVVCLLNNFYPREAKVQWKVDNALQSGNSQESVTEQDSKDSTYSLSSTLTLSKADYEKHKVYACEVTHQGLSSPVTKSFNRGEC		1.54	64	41.5
